Patent US20260232827A1, “ANTIBODY-DRUG CONJUGATES TARGETING NAPI2B AND METHODS OF USE” (Zymeworks BC Inc., priority 2023, published 2026)

B1: v29453: "Representative humanized antibody variants ... of the mouse antibody" that specifically binds hNaPi2b (antibody, V domains shown)
VH: QVQLVQSGAEVKKPGASVKMSCKASGFTFTSYNVHWVRQAPGQGLEWIAAISPGNGDLSYAQKFQGRATLTVDRSTSTAYMELSSLRSEDTAVYYCARGRTGMGAVDYWGQGTLVTVSS
VL: DVQMTQSPSSLSASVGDRVTITCRASQDVYSYLNWYQQKPGKAVKLLIYYTSRLQSGVPSRFSGSGSGTDYTLTISSLQPEDFATYYCQQYNIFPWTFGQGTKLEIK
modifications: v29449, v29453, v29457 H4; v29453, v29454, v29455, v29456 L2
B2: v29457: "Representative humanized antibody variants ... of the mouse antibody" that specifically binds hNaPi2b (antibody, V domains shown)
VH: QVQLVQSGAEVKKPGASVKMSCKASGFTFTSYNVHWVRQAPGQGLEWIAAISPGNGDLSYAQKFQGRATLTVDRSTSTAYMELSSLRSEDTAVYYCARGRTGMGAVDYWGQGTLVTVSS
VL: DIQMTQSPSSLSASVGDRVTITCRASQDVYSYLNWYQQKPGKAPKLLIYYTSRLQSGVPSRFSGSGSGTDFTLTISSLQPEDFATYYCQQYNIFPWTFGQGTKLEIK
modifications: v29449, v29453, v29457 H4; v29457, v29458, v29459, v29460 L1
B3: v29460: "Representative humanized antibody variants ... of the mouse antibody" that specifically binds hNaPi2b (antibody, V domains shown)
VH: QVQLVQSGAEVKKPGASVKVSCKASGFTFTSYNVHWVRQAPGQGLEWMGAISPGNGDLSYAQKFQGRVTMTRDTSTSTVYMELSSLRSEDTAVYYCARGRTGMGAVDYWGQGTLVTVSS
VL: DIQMTQSPSSLSASVGDRVTITCRASQDVYSYLNWYQQKPGKAPKLLIYYTSRLQSGVPSRFSGSGSGTDFTLTISSLQPEDFATYYCQQYNIFPWTFGQGTKLEIK
modifications: v29452, v29460 H1; v29457, v29458, v29459, v29460 L1
B4: v29455: "Representative humanized antibody variants ... of the mouse antibody" that specifically binds hNaPi2b (antibody, V domains shown)
VH: QVQLVQSGAEVKKPGASVKVSCKASGFTFTSYNVHWVRQAPGQGLEWIAAISPGNGDLSYAQKFQGRVTMTVDTSTSTVYMELSSLRSEDTAVYYCARGRTGMGAVDYWGQGTLVTVSS
VL: DVQMTQSPSSLSASVGDRVTITCRASQDVYSYLNWYQQKPGKAVKLLIYYTSRLQSGVPSRFSGSGSGTDYTLTISSLQPEDFATYYCQQYNIFPWTFGQGTKLEIK
modifications: v29451, v29455, v29459 H2; v29453, v29454, v29455, v29456 L2
B5: v29449: "Representative humanized antibody variants ... of the mouse antibody" that specifically binds hNaPi2b (antibody, V domains shown)
VH: QVQLVQSGAEVKKPGASVKMSCKASGFTFTSYNVHWVRQAPGQGLEWIAAISPGNGDLSYAQKFQGRATLTVDRSTSTAYMELSSLRSEDTAVYYCARGRTGMGAVDYWGQGTLVTVSS
VL: DVQMTQSPSSLSASVGDRVTITCRASQDVYSYLNWYQQKPGKAVKLLIYYTSRLQSGVPSRFSGSGSGTDYTLTISSLQPEDIATYYCQQYNIFPWTFGQGTKLEIK
modifications: v29449, v29453, v29457 H4; v29449 L3
B6: v29454: "Representative humanized antibody variants ... of the mouse antibody" that specifically binds hNaPi2b (antibody, V domains shown)
VH: QVQLVQSGAEVKKPGASVKMSCKASGFTFTSYNVHWVRQAPGQGLEWIAAISPGNGDLSYAQKFQGRATLTVDTSTSTAYMELSSLRSEDTAVYYCARGRTGMGAVDYWGQGTLVTVSS
VL: DVQMTQSPSSLSASVGDRVTITCRASQDVYSYLNWYQQKPGKAVKLLIYYTSRLQSGVPSRFSGSGSGTDYTLTISSLQPEDFATYYCQQYNIFPWTFGQGTKLEIK
modifications: v29450, v29454, v29458 H3; v29453, v29454, v29455, v29456 L2
B7: v29459: "Representative humanized antibody variants ... of the mouse antibody" that specifically binds hNaPi2b (antibody, V domains shown)
VH: QVQLVQSGAEVKKPGASVKVSCKASGFTFTSYNVHWVRQAPGQGLEWIAAISPGNGDLSYAQKFQGRVTMTVDTSTSTVYMELSSLRSEDTAVYYCARGRTGMGAVDYWGQGTLVTVSS
VL: DIQMTQSPSSLSASVGDRVTITCRASQDVYSYLNWYQQKPGKAPKLLIYYTSRLQSGVPSRFSGSGSGTDFTLTISSLQPEDFATYYCQQYNIFPWTFGQGTKLEIK
modifications: v29451, v29455, v29459 H2; v29457, v29458, v29459, v29460 L1
B8: v29458: "Representative humanized antibody variants ... of the mouse antibody" that specifically binds hNaPi2b (antibody, V domains shown)
VH: QVQLVQSGAEVKKPGASVKMSCKASGFTFTSYNVHWVRQAPGQGLEWIAAISPGNGDLSYAQKFQGRATLTVDTSTSTAYMELSSLRSEDTAVYYCARGRTGMGAVDYWGQGTLVTVSS
VL: DIQMTQSPSSLSASVGDRVTITCRASQDVYSYLNWYQQKPGKAPKLLIYYTSRLQSGVPSRFSGSGSGTDFTLTISSLQPEDFATYYCQQYNIFPWTFGQGTKLEIK
modifications: v29450, v29454, v29458 H3; v29457, v29458, v29459, v29460 L1

Assay: Thermal stability by differential scanning calorimetry (DSC)
Assay type: physicochemical
Conditions: 0.4 mg/mL in PBS
Method: The thermal stability of the humanized antibody variants was assessed by differential scanning calorimetry (DSC) as described below.
400 μL of purified samples primarily at concentrations of 0.4 mg/mL in PBS were used for DSC analysis with a VP-Capillary DSC (Malvern Panalytical Inc., Westborough, MA). At the start of each DSC run, 5 buffer blank injections were performed to stabilize the baseline, and a buffer injection was placed before each sample injection for referencing. Each sample was scanned from 20° C. to 100° C. at a 60° C./hr rate, with low feedback, 8 sec filter, 3 min pre-scan thermostat, and 70 psi nitrogen pressure. The resulting thermograms were referenced and analyzed using Origin 7 software (OriginLab Corporation, Northampton, MA) to determine melting temperature (Tm) as an indicator of thermal stability.

| Molecule | Fab Tm [°C] |
| --- | --- |
| B1 | 78.9 |
| B2 | 80.5 |
| B3 | 80.3 |
| B4 | 81.5 |
| B5 | 80.0 |
| B6 | 79.7 |
| B7 | 83.1 |
| B8 | 81.6 |
